These results are taken from US20240034813A1 (Janssen / Centocor, published 2024).

The target in experiment [1] is T1, recombinant cMet/HGFR with c-terminal His-tag, Cy5-labeled (UniProt P08581 25-932, limits assumed, Cy5 label (reacted with Cy5 Mono NHS Ester; sites not stated)).
T1 construct: Commercial protein; also called Cy5-c-MET; Cy5-labeled c-MET antigen; not shown: C-terminal His-tag
The experiment in a line: competitive TR-FRET (Eu-amivantamab/Cy5-c-MET), EC50 ratio vs Reference Material; Ex. 3 acetate formulation with PS80, T0. An excerpt: (§1) In this procedure, varying concentrations of unlabeled bispecific EGFR-cMet antibody sample compete with donor fluorophore (Europium (Eu) chelate) labeled bispecific EGFR-cMet antibody for binding to an acceptor fluorophore (Cy5)-labeled c-MET antigen. Excitation of the donor fluorophore results in a transfer of energy to the bound acceptor fluorophore (FRET process). The resultant FRET is detected by emission of light at 665 nm using a microplate reader capable of measuring time-resolved fluorescence. Sample dose response curves are compared to the Reference Material (RM).
(§2) c-MET Binding Materials and Methods. Certified commercial cMet, a recombinant cMet/HGFR with c-terminal His-tag is reacted with certified commercial Cy5 Mono NHS Ester to produce Cy5-labeled c-MET. Validated bispecific EGFR-cMet antibody is reacted with certified commercial Europium (Eu) chelate to produce Eu labeled bispecific EGFR-cMet antibody. […] Fluorescence is then measured by spectrophotometry at 665 nm, plotted against antibody concentration and analyzed by a four-parameter logistic model. The antibody concentration required to obtain half of the maximum fluorescence response (EC50) is determined for RM, assay control and samples. The potencies of assay control and samples are calculated based on the ratio of the sample (or control) and RM EC50 values and reported as a percentage activity relative to the RM.
On the technique in general: TR-FRET usually uses a lanthanide donor and a delayed reading to cut background.

Experiment [2] concerns the target T1, recombinant cMet/HGFR with c-terminal …. As to the kind of experiment: competitive TR-FRET (Eu-amivantamab/Cy5-c-MET), EC50 ratio vs Reference Material; Ex. 11 drug product, 0 months, 25 C table.
From the text: as §1, §2

For experiment [3], the target named is T2, recombinant human EGFR/ErbB1/HER1 with C-terminal His tag, Cy5-labeled (human, UniProt P00533 25-645, Cy5 label (reacted with Cy5 Mono NHS Ester; sites not stated)).
T2 construct: Commercial protein; also called Cy5-EGFR; Cy5-labeled EGFR antigen; not shown: C-terminal His tag
The experiment in a line: competitive TR-FRET (Eu-amivantamab/Cy5-EGFR), EC50 ratio vs Reference Material; Ex. 2 Formulation 3 (acetate), T0, 25 C table.
From the text: (§3) In this procedure, varying concentrations of unlabeled bispecific EGFR-cMet antibody sample compete with donor fluorophore (Europium (Eu) chelate) labeled bispecific EGFR-cMet antibody for binding to an acceptor fluorophore (Cy5)-labeled EGFR antigen. Excitation of the donor fluorophore results in a transfer of energy to the bound acceptor fluorophore (FRET process). The resultant FRET is detected by emission of light at 665 nm using a microplate reader capable of measuring time-resolved fluorescence. Sample dose response curves are compared to the RM.
as §2, with “EGFR” for “c-MET”, “EGFR,” for “cMet,”, “human EGFR/ErbB1/HER1” for “cMet/HGFR”, “C-terminal His tag” for “c-terminal His-tag”, “EGFR.” for “c-MET.”, “Eu-labeled” for “Eu labeled”

The target of experiment [4] is T1, recombinant cMet/HGFR with c-terminal …. As to the kind of experiment: competitive TR-FRET (Eu-amivantamab/Cy5-c-MET), EC50 ratio vs Reference Material; Ex. 2 Formulation 3 (acetate), 3 months at 25 C.
From the text: as §1, §2

For experiment [5] the target is unchanged. The experiment in a line: competitive TR-FRET (Eu-amivantamab/Cy5-c-MET), EC50 ratio vs Reference Material; Ex. 12 drug product with rHuPH20, 12 months at 5 C.
From the text: as §1, §2

For experiment [6], the target named is T2, recombinant human EGFR/ErbB1/HER1 with …. As to the kind of experiment: competitive TR-FRET (Eu-amivantamab/Cy5-EGFR), EC50 ratio vs Reference Material; Ex. 2 Formulation 2 (50 mM histidine), 1 month at 40 C.
From the text: as §3
as §2, with “EGFR” for “c-MET”, “EGFR,” for “cMet,”, “human EGFR/ErbB1/HER1” for “cMet/HGFR”, “C-terminal His tag” for “c-terminal His-tag”, “EGFR.” for “c-MET.”, “Eu-labeled” for “Eu labeled”

The target of experiment [7] is T1, recombinant cMet/HGFR with c-terminal …. The experiment in a line: competitive TR-FRET (Eu-amivantamab/Cy5-c-MET), EC50 ratio vs Reference Material; Ex. 2 Formulation 1 (10 mM histidine), T0, 40 C table.
From the text: as §1, §2

For experiment [8], the target named is T2, recombinant human EGFR/ErbB1/HER1 with …. As to the kind of experiment: competitive TR-FRET (Eu-amivantamab/Cy5-EGFR), EC50 ratio vs Reference Material; Ex. 2 Formulation 1 (10 mM histidine), 3 months at 40 C.
From the text: as §3
as §2, with “EGFR” for “c-MET”, “EGFR,” for “cMet,”, “human EGFR/ErbB1/HER1” for “cMet/HGFR”, “C-terminal His tag” for “c-terminal His-tag”, “EGFR.” for “c-MET.”, “Eu-labeled” for “Eu labeled”

B1: amivantamab (bispecific antibody, human IgG1, kappa)
heavy 1: not shown
light 1: not shown
heavy 2: not shown
light 2: DIQMTQSPSSVSASVGDRVTITCRASQGISNWLAWFQHKPGKAPKLLIYAASSLLSGVPSRFSGSGSGTDFTLTISSLQPEDFATYYCQQANSFPITFGQGTRLEIKRTVAAPSVFIFPPSDEQLKSGTASVVCLLNNFYPREAKVQWKVDNALQSGNSQESVTEQDSKDSTYSLSSTLTLSKADYEKHKVYACEVTHQGLSSPVTKSFNRGEC
notes: The samples tested were high concentration (160 mg/mL) formulations, fresh or stored or stressed; also called JNJ-61186372; bispecific EGFR-cMet antibody
With B1, the “cMET Binding % activity relative to RM” value worked out at 94% in experiment [1], 105% in experiment [4] and 87% in experiment [7]. Moreover, the “cMET Binding activity relative to Reference Material (%)” value in experiment [2] amounted to 85%; in experiment [5], 97%. Also, the “EGFR Binding % activity relative to RM” value in experiment [3] was 103%; in experiment [6] it was 68%; in experiment [8] it was 41%.
